Results taken from patent US20260209317A1.
Like-named read-outs stand apart in the source and are kept apart here.

Tests used:
[1] = molecular target: SARS-CoV-2 WA-1 S-2P spike protein (SARS-CoV-2) (UniProt P0DTC2)
[2] = molecular target: SARS-CoV-2 Omicron BA.1 spike protein (on pseudotyped lentivirus) (SARS-CoV-2) (UniProt P0DTC2)
[3] = molecular target: SARS-CoV-2 Omicron BJ.1 spike protein (on pseudotyped lentivirus) (SARS-CoV-2) (UniProt P0DTC2)
[4] = molecular target: SARS-CoV-2 Omicron BA.2.75 spike protein (on pseudotyped lentivirus) (SARS-CoV-2) (UniProt P0DTC2)
[5] = molecular target: SARS-CoV-2 Omicron BA.2.12.1 spike protein (on pseudotyped lentivirus) (SARS-CoV-2) (UniProt P0DTC2)
[6] = molecular target: SARS-CoV-2 Omicron BA.4/BA.5 spike protein (on pseudotyped lentivirus) (SARS-CoV-2) (UniProt P0DTC2)
[7] = molecular target: SARS-CoV-2 Omicron XBB spike protein (on pseudotyped lentivirus) (SARS-CoV-2) (UniProt P0DTC2)
[8] = molecular target: SARS-CoV-2 Omicron BA.2.75.2 spike protein (on pseudotyped lentivirus) (SARS-CoV-2)
[9] = molecular target: SARS-CoV-2 Omicron BA.4.6 spike protein (on pseudotyped lentivirus) (SARS-CoV-2)
[10] = molecular target: SARS-CoV-2 Omicron BQ.1.1 spike protein (on pseudotyped lentivirus) (SARS-CoV-2) (UniProt P0DTC2)
[11] = molecular target: SARS-CoV-2 Omicron BA.4/BA.5 spike protein (on pseudotyped lentivirus) (SARS-CoV-2) (UniProt P0DTC2); remark: listed apart in the source
[12] = molecular target: SARS-CoV-2 Omicron BA.4.6 spike protein (on pseudotyped lentivirus) (SARS-CoV-2); remark: listed apart in the source

Work on BD55-5514 (antibody) yielded a % inhibition of ACE2 binding [1] of 99%.

For CB6 (antibody), the % inhibition of ACE2 binding [1] was 93%.

For DH1047 (antibody), the % inhibition of ACE2 binding [1] was 113%.

Substance LY-CoV1404 (antibody) has a % inhibition of ACE2 binding [1] of 99%, a neutralization IC50 [2] of 2 ng/mL and a neutralization IC80 [2] of 5 ng/mL. For the same substance, the neutralization IC50 [3] was > 10 µg/mL, the neutralization IC80 [3] was > 10 µg/mL and the neutralization IC50 [4] was 3 ng/mL. The neutralization IC80 [4] was 0.015 µg/mL, the neutralization IC50 [5] was 1 ng/mL and the neutralization IC80 [5] was 4 ng/mL. The neutralization IC50 [6] was 1.4 ng/mL, the neutralization IC80 [6] was 3 ng/mL and the neutralization IC50 [7] was > 10 µg/mL. For the same substance, the neutralization IC80 [7] was > 10 µg/mL, the neutralization IC50 [8] was 1 ng/mL and the neutralization IC80 [8] was 5 ng/mL. The neutralization IC50 [9] was 0.4 ng/mL, the neutralization IC80 [9] was 1 ng/mL and the neutralization IC50 [10] was > 10 µg/mL. For the same substance, the neutralization IC80 [10] was > 10 µg/mL, the neutralization IC50 [11] was 1 ng/mL and the neutralization IC80 [12] was 1.4 ng/mL.

With S2H97 (antibody) the % inhibition of ACE2 binding [1] was -3%.
